Results: patent US20260216242A1 (ALMAC DISCOVERY, published 2026)
Numbering of substitutions follows the chain as printed. Names and notes keep the numbering of the source.

How the values were obtained:
[1] = target: T1, human ALPPL2 (alkaline phosphatase, germ cell type) expressed on the surface of CHO cells (human, UniProt P10696 20-503); test: cell-based or functional assay
[2] = target: T2, human ALPI (intestinal alkaline phosphatase) expressed on the surface of CHO cells (human, UniProt P09923 20-503); test: cell-based or functional assay
T2 sequence (looked up): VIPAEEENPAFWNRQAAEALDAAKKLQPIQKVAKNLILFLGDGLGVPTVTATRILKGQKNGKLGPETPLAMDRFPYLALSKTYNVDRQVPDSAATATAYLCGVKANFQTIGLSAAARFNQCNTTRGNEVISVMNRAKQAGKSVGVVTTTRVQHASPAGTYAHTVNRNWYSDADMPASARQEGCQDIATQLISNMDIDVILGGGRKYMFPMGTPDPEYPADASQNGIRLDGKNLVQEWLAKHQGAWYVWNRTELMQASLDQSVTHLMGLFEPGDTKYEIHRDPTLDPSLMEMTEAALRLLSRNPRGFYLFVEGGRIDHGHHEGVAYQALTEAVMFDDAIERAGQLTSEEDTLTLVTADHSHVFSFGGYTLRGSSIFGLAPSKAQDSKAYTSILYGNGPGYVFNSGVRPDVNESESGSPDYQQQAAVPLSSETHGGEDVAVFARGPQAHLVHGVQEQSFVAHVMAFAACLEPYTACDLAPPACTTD

[3] = target: T3, human ALPL (tissue non-specific alkaline phosphatase) expressed on the surface of CHO cells (human, UniProt P05186 18-501); test: cell-based or functional assay
T3 sequence (looked up): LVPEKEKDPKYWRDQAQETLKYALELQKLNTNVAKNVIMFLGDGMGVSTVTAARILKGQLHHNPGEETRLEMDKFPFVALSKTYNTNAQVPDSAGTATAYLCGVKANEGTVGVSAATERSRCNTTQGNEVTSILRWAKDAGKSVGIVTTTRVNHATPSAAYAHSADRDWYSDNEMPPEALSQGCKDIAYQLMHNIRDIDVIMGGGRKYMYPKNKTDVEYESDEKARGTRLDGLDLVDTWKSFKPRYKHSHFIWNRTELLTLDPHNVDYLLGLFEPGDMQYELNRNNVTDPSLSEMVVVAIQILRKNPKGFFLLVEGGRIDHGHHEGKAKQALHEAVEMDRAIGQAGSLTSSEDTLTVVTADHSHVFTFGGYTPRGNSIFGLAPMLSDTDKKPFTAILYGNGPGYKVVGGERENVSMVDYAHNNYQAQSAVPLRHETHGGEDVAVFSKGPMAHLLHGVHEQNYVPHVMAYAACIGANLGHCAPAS

[4] = target: T2, human ALPI (intestinal alkaline …); test: flow cytometry, CHO-ALPI cells
[5] = target: T3, human ALPL (tissue non-specific …); test: flow cytometry, CHO-ALPL cells
[6] = target: T4, human ALPP (alkaline phosphatase, placental type) expressed on the surface of CHO cells (human, UniProt P05187 23-506); test: flow cytometry on CHO-ALPP cells, apparent KD (KDapp)
T4 construct: also called CHO-ALPP; hALPP
How it was run: (§1)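 Cell-surface binding to CHO cells stably transfected with human ALPP, ALPPL2, ALPI or ALPL; cells detached with 0.1% EDTA/PBS, incubated with biparatopic VHH-hFc drug conjugates over a concentration range for 1 hr on ice. Bound agent detected with FITC anti-human Ab (30 min, ice, dark) by flow cytometry; KDapp derived from binding.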

[7] = target: T1, human ALPPL2 (alkaline phosphatase, …); test: flow cytometry on CHO-ALPPL2 cells, apparent KD (KDapp)
How it was run: as §1

human ALPI on CHO cells = target: T5, human ALPI on CHO cells (human, UniProt P09923 20-503); test: flow cytometry, CHO cells stably expressing human ALPI; PDC detected with FITC anti-human Ab
T5 construct: whole, on cells; also called CHO-ALPI
T5 sequence (looked up): T2 sequence (looked up)
Description: Biparatopic VHH-hFc drug conjugates were assessed for human ALPP, ALPPL2, ALPI and ALPL cell-surface binding by flow cytometry. Binders were screened on CHO cells stably expressing human ALPP, ALPPL2, ALPI or ALPL.
Cell surface binding of test agents to hALPP isoforms was characterized in four CHO-ALPP isoform transfectant cell lines (CHO-ALPP, CHO-ALPPL2, CHO-ALPI and CHO-ALPL) and the resulting KDapp values determined. Adherent cells were detached from tissue culture flasks by incubating with 0.1% EDTA/PBS solution at 37° C. for […] or until cells detached easily. Cells were re-suspended in ice-cold PBS/2% FCS in 15 ml tubes and centrifuged at 1700 rpm for 5 mins at 4° C. Supernatant was removed and the cell pellet re-suspended in PBS/2% FCS. […] Cells were incubated with 100 μl of test agents at a range of concentrations, plus controls for 1 hr on ice. The sample plate was centrifuged at 1700 rpm for 5 mins at 4° C. The supernatant was removed, and a wash performed by re-suspending the cell pellets in 0.25 mL of ice-cold PBS/2% FCS using a multichannel pipette. Samples were again centrifuged at 1700 rpm for 5 min at 4° C. Supernatant was removed and two further washes performed as described. After the final wash and centrifugation step, excess liquid was removed by blotting the plate on tissue paper. Binding of VHH-hFc agents was determined by adding 100 μl of Fitc-anti-human Ab (ThermoFisher) and incubating for 30 mins on ice in the dark. Wash steps were performed as described previously. All cell pellets were finally re-suspended in 0.28 ml of ice-cold PBS/2% FCS and left on ice in the dark prior to analysis on a Merck-Millipore Guava EasyCyte HT or Thermo Fisher Attune N×T flow cytometer.

human ALPL on CHO cells = target: T6, human ALPL on CHO cells (human, UniProt P05186 18-501); test: flow cytometry, CHO cells stably expressing human ALPL; PDC detected with FITC anti-human Ab
T6 construct: whole, on cells; also called CHO-ALPL
T6 sequence (looked up): T3 sequence (looked up)
How it was run: as §1

T1 sequence (P10696 20-503): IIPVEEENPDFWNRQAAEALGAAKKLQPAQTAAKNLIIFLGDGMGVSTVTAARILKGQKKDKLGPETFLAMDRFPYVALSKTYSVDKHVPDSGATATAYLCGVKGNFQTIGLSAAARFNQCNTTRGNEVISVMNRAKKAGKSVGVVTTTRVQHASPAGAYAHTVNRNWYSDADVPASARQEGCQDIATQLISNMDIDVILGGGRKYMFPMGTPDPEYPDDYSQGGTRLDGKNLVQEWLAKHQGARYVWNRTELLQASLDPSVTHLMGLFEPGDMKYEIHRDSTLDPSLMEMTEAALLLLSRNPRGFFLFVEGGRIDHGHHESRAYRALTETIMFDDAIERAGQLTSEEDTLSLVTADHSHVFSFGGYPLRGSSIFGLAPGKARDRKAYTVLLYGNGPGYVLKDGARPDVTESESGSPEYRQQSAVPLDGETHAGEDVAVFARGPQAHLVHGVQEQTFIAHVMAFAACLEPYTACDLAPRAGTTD
T4 sequence (P05187 23-506 limits assumed): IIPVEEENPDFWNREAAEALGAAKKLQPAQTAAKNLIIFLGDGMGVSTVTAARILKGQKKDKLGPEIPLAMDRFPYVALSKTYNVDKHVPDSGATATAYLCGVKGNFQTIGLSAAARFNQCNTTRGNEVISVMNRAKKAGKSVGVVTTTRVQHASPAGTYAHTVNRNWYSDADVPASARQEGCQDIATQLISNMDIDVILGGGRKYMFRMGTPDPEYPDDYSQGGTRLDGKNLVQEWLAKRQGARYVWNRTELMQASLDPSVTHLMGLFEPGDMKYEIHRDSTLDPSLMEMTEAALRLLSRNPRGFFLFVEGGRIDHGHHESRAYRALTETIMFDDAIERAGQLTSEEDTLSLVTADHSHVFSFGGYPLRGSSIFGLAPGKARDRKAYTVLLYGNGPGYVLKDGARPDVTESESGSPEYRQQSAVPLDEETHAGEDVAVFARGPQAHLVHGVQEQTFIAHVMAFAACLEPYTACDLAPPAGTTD

B1: D10 E10-hFc (S239/442C T366Y/Y407T), [G4S]3 linker, MC-vc-PAB-MMAE conjugate, #636 (Fc fusion, DAR 4)
chain 1: QVQLVESGGGLVQPGGSLRLSCAASGSIFSVNTMGWYRQAPGKQRDLVAVATSGGTIHYADSVKGRFTISRDNAKNTVYLQMNSLKPEDTAVYYCNLVVPYGMIAGDHDYWGQGTKVTVSSGGGGSGGGGSGGGGSEPKSSDKTHTCPPCPAPELLGGPCVFLFPPKPKDTLMISRTPEVTCVVVDVSHEDPEVKFNWYVDGVEVHNAKTKPREEQYNSTYRVVSVLTVLHQDWLNGKEYKCKVSNKALPAPIEKTISKAKGQPREPQVYTLPPSRDELTKNQVSLYCLVKGFYPSDIAVEWESNGQPENNYKTTPPVLDSDGSFFLYSKLTVDKSRWQQGNVFSCSVMHEALHNHYTQKSLCLSPGK
chain 2: QVQLVESGGGLVQAGGSLRLSCAVSGRALSDYNIGWFRQAPGKEREFVARKTWDGSSTRYDDSVKGRFTVSIEDAKNTAYLQMSSLKTEDTAVYYCAAGRYSRARGWEYDYWGQGTQVTVSSGGGGSGGGGSGGGGSEPKSSDKTHTCPPCPAPELLGGPCVFLFPPKPKDTLMISRTPEVTCVVVDVSHEDPEVKFNWYVDGVEVHNAKTKPREEQYNSTYRVVSVLTVLHQDWLNGKEYKCKVSNKALPAPIEKTISKAKGQPREPQVYTLPPSRDELTKNQVSLTCLVKGFYPSDIAVEWESNGQPENNYKTTPPVLDSDGSFFLTSKLTVDKSRWQQGNVFSCSVMHEALHNHYTQKSLCLSPGK
modifications: MC-vc-PAB-MMAE on Cys of S239C and S442C (EU numbering)
notes: Biparatopic knob-into-hole VHH-hFc heterodimer, DAR 4; also called D10-E10 hFc-vcPAB-MMAE; D10-E10 hFc-vc-MMAE
B1 was tested, and the “IC50 at 96 h, cell-killing of CHO-ALPPL2 cells” value [1] was 12.5 nM, the “IC50 at 96 h, cell-killing of CHO-ALPI cells” value [2] was over 1000 nM and the “IC50 at 96 h, cell-killing of CHO-ALPL cells” value [3] was over 1000 nM. The binding result [4] was “no binding (tested: 350 nM (highest concentration))”, the binding result [5] was “no binding (tested: 350 nM (highest concentration))” and the Kd [6] was 6.8 nM. The Kd [7] was 4.7 nM.

B2: D10 F05-hFc (S239/442C T366Y/Y407T), [G4S]3 linker, MC-vc-PAB-MMAE conjugate, #637 (Fc fusion, DAR 4)
chain 1: B1 chain 1
chain 2: B1 chain 2 with V24A, L29F, S30G, K51R, E73D, D74N, S84N, A104V
modifications: MC-vc-PAB-MMAE on Cys of S239C and S442C (EU numbering)
notes: Biparatopic knob-into-hole VHH-hFc heterodimer, DAR 4; also called D10-F05 hFc-vcPAB-MMAE; D10-F05 hFc-vc-MMAE
For B2, the “IC50 at 96 h, cell-killing of CHO-ALPPL2 cells” value [1] was 13 nM, the “IC50 at 96 h, cell-killing of CHO-ALPI cells” value [2] was over 1000 nM and the “IC50 at 96 h, cell-killing of CHO-ALPL cells” value [3] was over 1000 nM. For the same binder, the binding result [4] was “no binding (tested: 350 nM (highest concentration))”, the binding result [5] was “no binding (tested: 350 nM (highest concentration))” and the Kd [6] was 7.4 nM. For the same binder, the Kd [7] was 3.5 nM.

B3: D10-F05 hFc-vcPAB-MMAE [G4S]3 (Fc fusion, DAR 4)
chain 1: B1 chain 1
chain 2: B1 chain 2 with V24A, L29F, S30G, K51R, E73D, D74N, S84N, A104V
modifications: MC-vc-PAB-MMAE on Cys 239 and Cys 442 (EU numbering)
notes: Biparatopic drug conjugate, DAR 4; also called #637
B3: no binding (tested: 350 nM) (human ALPI on CHO cells); no binding (tested: 350 nM) (human ALPL on CHO cells).

B4: D10-E06-hFc-vcPAB-MMAE [G4S]1 (Fc fusion, DAR 4)
chain 1: QVQLVESGGGLVQPGGSLRLSCAASGSIFSVNTMGWYRQAPGKQRDLVAVATSGGTIHYADSVKGRFTISRDNAKNTVYLQMNSLKPEDTAVYYCNLVVPYGMIAGDHDYWGQGTKVTVSSGGGGSEPKSSDKTHTCPPCPAPELLGGPCVFLFPPKPKDTLMISRTPEVTCVVVDVSHEDPEVKFNWYVDGVEVHNAKTKPREEQYNSTYRVVSVLTVLHQDWLNGKEYKCKVSNKALPAPIEKTISKAKGQPREPQVYTLPPSRDELTKNQVSLYCLVKGFYPSDIAVEWESNGQPENNYKTTPPVLDSDGSFFLYSKLTVDKSRWQQGNVFSCSVMHEALHNHYTQKSLCLSPGK
chain 2: QVHLVESGGGLVQAGGSLRLSCAASRRSFSEYAMGWFRQAPGKEREFVAAIGWSGVIEYADSVKGRFTISRDNAKDTVYLQMNSLKPEDTAVYYCAAGLGIRVVSQTPAYWGQGTQVTVSSGGGGSEPKSSDKTHTCPPCPAPELLGGPCVFLFPPKPKDTLMISRTPEVTCVVVDVSHEDPEVKFNWYVDGVEVHNAKTKPREEQYNSTYRVVSVLTVLHQDWLNGKEYKCKVSNKALPAPIEKTISKAKGQPREPQVYTLPPSRDELTKNQVSLTCLVKGFYPSDIAVEWESNGQPENNYKTTPPVLDSDGSFFLTSKLTVDKSRWQQGNVFSCSVMHEALHNHYTQKSLCLSPGK
modifications: MC-vc-PAB-MMAE on Cys 239 and Cys 442 (EU numbering)
notes: Biparatopic drug conjugate, DAR 4
B4: no binding (tested: 350 nM) (human ALPI on CHO cells); no binding (tested: 350 nM) (human ALPL on CHO cells).

B5: D10-E10-hFc-vcPAB-MMAE [G4S]1 (Fc fusion, DAR 4)
chain 1: B4 chain 1
chain 2: QVQLVESGGGLVQAGGSLRLSCAVSGRALSDYNIGWFRQAPGKEREFVARKTWDGSSTRYDDSVKGRFTVSIEDAKNTAYLQMSSLKTEDTAVYYCAAGRYSRARGWEYDYWGQGTQVTVSSGGGGSEPKSSDKTHTCPPCPAPELLGGPCVFLFPPKPKDTLMISRTPEVTCVVVDVSHEDPEVKFNWYVDGVEVHNAKTKPREEQYNSTYRVVSVLTVLHQDWLNGKEYKCKVSNKALPAPIEKTISKAKGQPREPQVYTLPPSRDELTKNQVSLTCLVKGFYPSDIAVEWESNGQPENNYKTTPPVLDSDGSFFLTSKLTVDKSRWQQGNVFSCSVMHEALHNHYTQKSLCLSPGK
modifications: MC-vc-PAB-MMAE on Cys 239 and Cys 442 (EU numbering)
notes: as for B4
B5: no binding (tested: 350 nM) (human ALPI on CHO cells); no binding (tested: 350 nM) (human ALPL on CHO cells).

B6: D10-F05-hFc-vcPAB-MMAE [G4S]1 (Fc fusion, DAR 4)
chain 1: B4 chain 1
chain 2: B5 chain 2 with V24A, L29F, S30G, K51R, E73D, D74N, S84N, A104V
modifications: MC-vc-PAB-MMAE on Cys 239 and Cys 442 (EU numbering)
notes: Biparatopic drug conjugate, DAR 4; also called #679
B6: no binding (tested: 350 nM) (human ALPI on CHO cells); no binding (tested: 350 nM) (human ALPL on CHO cells).
